The target in data set [1] is T1, Scr (Sex combs reduced) (Bombyx mori, UniProt Q9XZR4 1-356). Kind of data set: competition; unlabeled mutant, 5-50x, against labeled N3; EMSA: 0.1-1 ug protein, 5 uM labeled probe, 15 uL with 3 uL 5x binding buffer (Beyotime, composition not given), 25 C, 20 + 20 min; 5% PAGE in 1x TBE (45 mM Tris-borate, 1 mM EDTA, pH 8.3). The conditions noted are these: protein: recombinant; tags: His-SUMO (N-terminal, pCold-SUMO); label: none; blunt. Background: A gel shift assay detects complexes by their altered migration in electrophoresis.

Data set [2] has as its target T1, Scr (Sex combs reduced). Description: competition; unlabeled mutant, 5-50x, against labeled N1; EMSA: 0.1-1 ug protein, 5 uM labeled probe, 15 uL with 3 uL 5x binding buffer (Beyotime, composition not given), 25 C, 20 + 20 min; 5% PAGE in 1x TBE (45 mM Tris-borate, 1 mM EDTA, pH 8.3). The conditions noted are these: protein: recombinant; tags: His-SUMO (N-terminal, pCold-SUMO); label: none; blunt.

Data set [3] concerns the target T1, Scr (Sex combs reduced). Description: EMSA; dose-dependent; competed by unlabeled probe; EMSA: 0.1-1 ug protein, 5 uM labeled probe, 15 uL with 3 uL 5x binding buffer (Beyotime, composition not given), 25 C, 20 + 20 min; 5% PAGE in 1x TBE (45 mM Tris-borate, 1 mM EDTA, pH 8.3). Conditions: protein: recombinant; tags: His-SUMO (N-terminal, pCold-SUMO); label: 5'-Cy3; blunt.

Data set [4] concerns the target T1, Scr (Sex combs reduced). Description: competition; unlabeled mutant, 5-50x, against labeled N5; EMSA: 0.1-1 ug protein, 5 uM labeled probe, 15 uL with 3 uL 5x binding buffer (Beyotime, composition not given), 25 C, 20 + 20 min; 5% PAGE in 1x TBE (45 mM Tris-borate, 1 mM EDTA, pH 8.3). Conditions: protein: recombinant; tags: His-SUMO (N-terminal, pCold-SUMO); label: none; blunt.

The text below walks through data of paper PMC4661804, “Homeodomain Protein Scr Regulates the Transcription of Genes Involved in Juvenile Hormone Biosynthesis in the Silkworm”.

T1 sequence (Q9XZR4 entry or part of it): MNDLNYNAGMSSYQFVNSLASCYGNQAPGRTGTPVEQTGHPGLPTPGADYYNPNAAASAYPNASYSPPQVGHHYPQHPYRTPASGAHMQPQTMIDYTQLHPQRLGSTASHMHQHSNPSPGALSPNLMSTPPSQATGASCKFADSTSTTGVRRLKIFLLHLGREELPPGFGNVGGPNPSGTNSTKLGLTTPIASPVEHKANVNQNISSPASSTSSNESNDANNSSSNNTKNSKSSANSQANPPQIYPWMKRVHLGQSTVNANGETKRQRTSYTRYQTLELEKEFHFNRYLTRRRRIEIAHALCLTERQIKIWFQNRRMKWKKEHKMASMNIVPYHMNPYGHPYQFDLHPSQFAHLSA

B1: FPPS2 mutant probe (dsDNA)
DNA 1: TCGCAAGTGAAAACACCCCCTTCGCAATCGGTTCA
DNA 2: TGAACCGATTGCGAAGGGGGTGTTTTCACTTGCGA
B1: in data set [1], the binding result was “no binding”.

B2: Allatotropin mutant probe (dsDNA)
DNA 1: CCATAGGTTTGTAGACCCCCAGCGTAGCACGCTGTA
DNA 2: TACAGCGTGCTACGCTGGGGGTCTACAAACCTATGG
For B2, the binding result in data set [2] is on record as “no binding”.

B3: JHAMT probe (dsDNA)
DNA 1: ATGGCTAATTTTTTTAATGAATTAAAAGAAC
DNA 2: GTTCTTTTAATTCATTAAAAAAATTAGCCAT
As to B3, the binding result in data set [3] is given as “binds”.

B4: Allatotropin probe (dsDNA)
DNA 1: CCATAGGTTTGTAGATAATTAGCGTAGCACGCTGTA
DNA 2: TACAGCGTGCTACGCTAATTATCTACAAACCTATGG
As to B4, the binding result in data set [3] is “binds”.

B5: JHAMT mutant probe (dsDNA)
DNA 1: ATGGCTAATTTTTTCCCCGAATTAAAAGAAC
DNA 2: GTTCTTTTAATTCGGGGAAAAAATTAGCCAT
Regarding B5, the binding result in data set [4] is given as “no binding”.

B6: FPPS2 probe (dsDNA)
DNA 1: TCGCAAGTGAAAACAATTAATTCGCAATCGGTTCA
DNA 2: TGAACCGATTGCGAATTAATTGTTTTCACTTGCGA
As for B6, the binding result in data set [3] is given as “binds”.
